Experimental data published in patent publication US20250388664A1 (BIOARCTIC, published 2025).

Tests used:
[1] = target: T1, h/m helical domain chimera (SEQ ID NO:113) (human/mouse chimera, UniProt Q62351 90-763 (mouse entry)); test: indirect ELISA: plate coated with 1 µg/ml h/m helical domain chimera, mouse IgG titrated, anti-mouse IgG-HRP; x axis printed as 'TfR (ng/ml)'
T1 construct: also called chimeric TfR1 consisting of human helical domain grafted on mouse TfR1 ectodomain
T1 chain: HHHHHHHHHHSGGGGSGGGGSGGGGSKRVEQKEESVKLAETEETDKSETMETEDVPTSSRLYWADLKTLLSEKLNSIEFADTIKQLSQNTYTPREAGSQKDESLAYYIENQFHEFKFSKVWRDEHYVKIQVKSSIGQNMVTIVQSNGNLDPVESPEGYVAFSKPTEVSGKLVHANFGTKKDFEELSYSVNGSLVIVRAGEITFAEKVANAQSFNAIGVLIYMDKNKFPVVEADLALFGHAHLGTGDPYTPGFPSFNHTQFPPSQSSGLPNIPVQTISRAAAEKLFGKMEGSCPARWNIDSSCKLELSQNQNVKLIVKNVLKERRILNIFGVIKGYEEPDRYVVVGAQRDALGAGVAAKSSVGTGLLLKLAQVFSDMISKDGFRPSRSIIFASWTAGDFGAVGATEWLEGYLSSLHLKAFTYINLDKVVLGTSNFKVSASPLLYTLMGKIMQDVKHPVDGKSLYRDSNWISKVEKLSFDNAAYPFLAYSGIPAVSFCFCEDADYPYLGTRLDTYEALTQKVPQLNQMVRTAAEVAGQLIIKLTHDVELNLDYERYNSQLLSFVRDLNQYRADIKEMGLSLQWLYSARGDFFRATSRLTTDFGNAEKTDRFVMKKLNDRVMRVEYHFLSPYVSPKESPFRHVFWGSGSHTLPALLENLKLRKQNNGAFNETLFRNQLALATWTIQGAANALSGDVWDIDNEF
Procedure: (§1) In the ELISA experiment, human, mouse or three different chimeric TfR1 receptors were used to coat ELISA plates (FIGS. 30A-30E). The ELISA protocol was slightly modified as follows from the indirect ELISA described in Example 15. […] The coated plates were then blocked. Dilution series of mouse IgG of the analyzed antibodies were prepared in PBS and incubated on the ELISA plates. Unbound antibodies were then washed off before incubating wells with a HRP-conjugated secondary, anti-mouse-IgG for 1 h. Plates were then washed again before addition of HRP substrate TMB for development and detection of antibody binding to the wells. TMB development was stopped by adding 0.5 M H₂SO₄ to the wells and ELISA responses measured as the OD at 450 nm in an ELISA plate reader.

[2] = target: T2, hTfR1 (recombinant, construct not specified) (human, UniProt P02786 89-760, limits assumed); test: BLI: IgG captured from hybridoma supernatant on anti-mouse capture sensors, 250 nM hTfR1 in solution, 120 s association, 90 s dissociation
T2 construct: also called biotinylated hTfR1
Procedure: Next, sensors with immobilized IgGs were briefly washed for 10 s before incubation in running buffer to establish a baseline signal. […] All proteins were diluted in running buffer. Target dissociation was measured by incubating the biosensors in running buffer for 90 s.

[3] = target: T3, His10-hTfR1 (SEQ ID NO:109) (human, UniProt P02786 90-760); test: ELISA, hybridoma supernatant
T3 construct: Recombinant, HEK293; also called His-tagged hTfR1; His-tagged hTfR

[4] = target: T4, h/m apical domain chimera (SEQ ID NO:112) (human/mouse chimera); test: indirect ELISA: plate coated with 1 µg/ml h/m apical domain chimera, mouse IgG titrated, anti-mouse IgG-HRP; x axis printed as 'TfR (ng/ml)'
T4 construct: also called chimeric TfR1 consisting of human apical domain grafted on mouse TfR1 ectodomain
T4 chain: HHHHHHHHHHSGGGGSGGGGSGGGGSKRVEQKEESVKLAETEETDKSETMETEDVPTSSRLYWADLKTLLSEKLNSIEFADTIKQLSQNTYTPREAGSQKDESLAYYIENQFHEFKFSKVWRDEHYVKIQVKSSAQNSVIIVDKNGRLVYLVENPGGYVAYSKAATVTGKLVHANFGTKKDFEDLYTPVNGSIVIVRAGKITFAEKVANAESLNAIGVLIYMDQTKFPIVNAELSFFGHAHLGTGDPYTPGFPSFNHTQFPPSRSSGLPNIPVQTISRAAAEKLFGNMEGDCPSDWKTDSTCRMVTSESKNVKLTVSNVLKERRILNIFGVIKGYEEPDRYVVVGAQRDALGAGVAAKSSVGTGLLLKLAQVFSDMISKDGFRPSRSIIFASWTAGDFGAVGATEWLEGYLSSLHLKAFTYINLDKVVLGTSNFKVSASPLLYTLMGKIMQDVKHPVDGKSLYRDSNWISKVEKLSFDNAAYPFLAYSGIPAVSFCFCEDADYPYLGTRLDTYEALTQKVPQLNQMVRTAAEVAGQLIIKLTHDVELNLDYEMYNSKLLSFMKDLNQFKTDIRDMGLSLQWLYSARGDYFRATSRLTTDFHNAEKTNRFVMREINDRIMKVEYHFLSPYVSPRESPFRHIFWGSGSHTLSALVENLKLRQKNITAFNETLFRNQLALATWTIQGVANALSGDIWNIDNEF
Procedure: Plasma samples serially diluted from a starting dilution of 1/450 or hybridoma supernatants diluted 1/2 were added to the plates (50 μl/well; dilution buffer: PBS with 0.1% BSA and 0.05% TWEEN®-20) and incubated for 2 h at room temperature and then the plates were washed four times. […] After another wash (as above), 50 μl/well TMB substrate (K-Blue® Aqueous, Neogen) was added, and the reaction was stopped after 10-15 min with 50 μl/well of 0.5 M H₂SO₄. The optical density at 450 nm was read using a plate reader (Tecan). The endpoint titers were defined as the dilution above the average of the blank wells (background) plus 3 standard deviations of the blank wells.
as §1

[5] = target: T5, ectodomain of human TfR1 (His10-hTfR1; SEQ ID NO:110) (human, UniProt P02786 89-760); test: indirect ELISA: plate coated with 1 µg/ml hTfR1 ectodomain, mouse IgG titrated, anti-mouse IgG-HRP; x axis printed as 'TfR (ng/ml)'
T5 construct: also called ectodomain of hTfR1
Procedure: as §1

Aβ3-28 monomer = target: T6, Aβ3-28 monomer (UniProt P05067 674-699); test: SPR, antibody immobilised
T6 construct: range 3-28 (Aβ numbering)
T6 sequence (P05067 674-699): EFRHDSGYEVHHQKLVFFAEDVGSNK
Procedure: (§2) Single cycle kinetics with the antibodies immobilized on a CM5 chip was used to measure the binding of the antibodies to the different monomers (AβpE3-40, AβpE11-28, Aβ1-28, Aβ2-28, Aβ3-28 and Aβ4-28). For the measurements, 5 μg/ml of analyte antibody was immobilized on the chip. […] Regeneration of the surface between cycles was done by injecting 30 μl 3 M MgCl₂. The binding data was fitted to a 1:1 interaction model.
(§3) In all SPR experiments, 1×HBS-EP+ (Cytiva, cat. no. BR100669) was used as running buffer and to dilute antibodies and target antigens. Experiments were performed at 25° C.

AβpE11-28 monomer = target: T7, AβpE11-28 monomer (UniProt P05067 682-699, pyroglutamate at position 11 (N-terminal residue)); test: SPR, antibody immobilised
T7 construct: range 11-28 (Aβ numbering)
T7 peptide (looked up): EVHHQKLVFFAEDVGSNK
Procedure: as §2, §3

Aβ2-28 monomer = target: T8, Aβ2-28 monomer (UniProt P05067 673-699); test: SPR, antibody immobilised
T8 construct: range 2-28 (Aβ numbering)
T8 sequence (P05067 673-699): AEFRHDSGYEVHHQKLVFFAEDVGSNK
Procedure: as §2, §3

AβpE3-42 protofibrils [6] = target: T9, AβpE3-42 protofibrils (UniProt P05067 674-713, pyroglutamate at position 3 (N-terminal residue)); test: SPR, protofibrils immobilised, antibody injected, 1:1 fit, apparent
T9 construct: range 3-42 (Aβ numbering); Soluble aggregates made from AβpE3-42 peptide, purified in the void peak of SEC; also called AβpE3-42 PF
T9 sequence (P05067 674-713): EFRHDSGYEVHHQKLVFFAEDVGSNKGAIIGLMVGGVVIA
Procedure: (§4) Single cycle kinetics was also used to measure binding of the antibodies to AβpE3-42 protofibrils. […] For binding to AβpE3-42 protofibrils, the antibodies were injected over the chip using a 3-fold dilution series in five steps starting at 700 nM, using 2 min injection of every antibody concentration and a 60 min dissociation time. Regeneration of the surface between cycles was done by injecting 30 μl 10 mM glycine-HCl pH 1.7. The binding data was fitted to a 1:1 interaction model.
as §3

AβpE3-42 protofibrils [7] = target: T9, AβpE3-42 protofibrils; test: SPR, protofibrils immobilised, antibody injected, 1:1 fit, apparent; binding to AβpE3-42 protofibrils (not monomer); KD in pM
Procedure: as §4, §3

Aβ1-28 monomer = target: T10, Aβ1-28 monomer (UniProt P05067 672-699); test: SPR, antibody immobilised
T10 construct: range 1-28 (Aβ numbering)
T10 sequence (P05067 672-699): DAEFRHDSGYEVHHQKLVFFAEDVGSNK
Procedure: Affinity and specificity evaluation and KD determination by surface plasmon resonance: Binding interactions between antigens and antibodies were evaluated by SPR using a Biacore 8K instrument (Cytiva) according to standard procedures. […] Additionally, the specificity towards different N-truncated forms of Aβ (Aβ2-28, Aβ3-28, Aβ4-28 and AβpE11-28 monomers) was evaluated.
as §2, §3

Aβ4-28 monomer = target: T11, Aβ4-28 monomer (UniProt P05067 675-699); test: SPR, antibody immobilised, monomer injected, 1:1 fit
T11 construct: range 4-28 (Aβ numbering)
T11 sequence (P05067 675-699): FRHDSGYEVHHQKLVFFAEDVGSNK
Procedure: as §2, §3

AβpE3-40 monomer [8] = target: T12, AβpE3-40 monomer (UniProt P05067 674-711, pyroglutamate at position 3 (N-terminal residue)); test: as above
T12 construct: range 3-40 (Aβ numbering); Synthetic peptide (Bachem/Anaspec), verified monomeric by SEC; also called monomeric AβpE3-40
Procedure: as §2, §3

Aβ1-40 monomer = target: T13, Aβ1-40 monomer (UniProt P05067 672-711); test: inhibition ELISA, antigen titrated in solution, AβpE3-40 coat
T13 construct: range 1-40 (Aβ numbering)
Procedure: (§5) For binding to Aβ1-40 and AβpE11-40, the positive control 4G8 (Covance #SIG-39320, epitope: amino acids 17-24 of Aβ) was included. The recombinant antibodies were incubated at a fixed concentration (0.05 μg/ml) with titrating concentrations of the different Aβ antigens. After incubation for 45 min at 900 rpm to reach equilibrium, the antibody-Aβ samples were added to a blocked and washed ELISA plate with an AβpE3-40 coat (0.5 μM). The samples were incubated on the plate for 25 min without shaking followed by washing, incubation with detection antibody, another washing step and finally incubation with alkaline phosphatase substrate.

AβpE3-42 protofibrils [9] = target: T9, AβpE3-42 protofibrils; test: as above
Procedure: as §5

AβpE11-40 monomer = target: T14, AβpE11-40 monomer (UniProt P05067 682-711, pyroglutamate at position 11 (N-terminal residue)); test: as above
T14 construct: range 11-40 (Aβ numbering)
T14 peptide (looked up): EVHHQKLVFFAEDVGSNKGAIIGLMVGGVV
Procedure: as §5

AβpE3-40 monomer [10] = target: T12, AβpE3-40 monomer; test: as above
Procedure: as §5

Aβ2-42 monomer = target: T15, Aβ2-42 monomer (UniProt P05067 673-713); test: ELISA: Aβ monomer captured on a polyclonal anti-Aβ42 coat, hybridoma supernatant diluted 1/243, anti-mouse IgG-HRP
T15 construct: range 2-42 (Aβ numbering)
T15 sequence (P05067 673-713): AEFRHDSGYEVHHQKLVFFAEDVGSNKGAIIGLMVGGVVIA

Aβ1-42 monomer = target: T16, Aβ1-42 monomer (UniProt P05067 672-713); test: as above
T16 construct: range 1-42 (Aβ numbering)
T16 sequence (P05067 672-713): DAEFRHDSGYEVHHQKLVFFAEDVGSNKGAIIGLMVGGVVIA

B1: 37D10 (antibody, V domains shown)
VH: QVQLQQSGAELVRPGTSVKISCKASGYAFTNYWLGWVKQRPGHGLEWIGDIFPGSDNTYYNEKFKGKATLTADKSSSTAYMQLSSLASEDSAVYFCARSGNFYAMDYWGQGTSVTVSS
VL: ENVLTQSPAIMSASPGEKVTMTCSASSSVNYMNWYQQKSSTFPKLWIYDTSKLASGVPGRFSGSGSGKFYSLTISSMEAEDVATYYCFQGSGYPFTFGSGTKLEIK
notes: also called mouse antibody 37D10; clone 37D10
binding result [1]: no binding (tested: about 600 ng/ml) | binding result [2]: binds | binding result [3]: binds | binding result [4]: no binding (tested: about 600 ng/ml) | binding result [5]: binds

B2: Pyr7.1 (antibody, V domains shown)
VH: KVQLQQSGPELVKPGTSIKMSCKTSGYSFTGYTLNWVKQSPGKNPEWIGLINPYNGITTYNPKFMGKATLTVDKSSSTAYMELLSLTSEDSAVYYCSREGNWEGVYWGQGTLVTVSA
VL: not shown
notes: Murine anti-AβpE3 antibody; also called recombinant antibody Pyr7.1; hybridoma clone Pyr7.1
binding result (Aβ3-28 monomer): no binding (tested: 2500 nM) | binding result (AβpE11-28 monomer): no binding (tested: 2500 nM) | binding result (Aβ2-28 monomer): no binding (tested: 2500 nM) | koff (AβpE3-42 protofibrils [6]): 2.29e-06 s⁻¹ | kon (AβpE3-42 protofibrils [6]): 78200 M⁻¹ s⁻¹ | Kd (AβpE3-42 protofibrils [7]): 0.031 nM | binding result (Aβ1-28 monomer): no binding (tested: 2500 nM) | Kd (Aβ4-28 monomer): 8310 nM | koff (Aβ4-28 monomer): 0.454 s⁻¹ | kon (Aβ4-28 monomer): 102000 M⁻¹ s⁻¹ | Kd (AβpE3-40 monomer [8]): 2.3 nM | koff (AβpE3-40 monomer [8]): 0.000122 s⁻¹ | kon (AβpE3-40 monomer [8]): 53200 M⁻¹ s⁻¹ | IC50 (Aβ1-40 monomer): > 5000 nM | IC50 (AβpE3-42 protofibrils [9]): 12.8 nM | IC50 (AβpE11-40 monomer): > 5000 nM | IC50 (AβpE3-40 monomer [10]): 2.85 nM | binding result (Aβ2-42 monomer): no binding | binding result (Aβ1-42 monomer): no binding
